Data: US20200255869

Target: purified HSA (Abcam, ab201876) (UniProt P02768)
Chain of UniProt P02768 (P02768 whole entry, looked up): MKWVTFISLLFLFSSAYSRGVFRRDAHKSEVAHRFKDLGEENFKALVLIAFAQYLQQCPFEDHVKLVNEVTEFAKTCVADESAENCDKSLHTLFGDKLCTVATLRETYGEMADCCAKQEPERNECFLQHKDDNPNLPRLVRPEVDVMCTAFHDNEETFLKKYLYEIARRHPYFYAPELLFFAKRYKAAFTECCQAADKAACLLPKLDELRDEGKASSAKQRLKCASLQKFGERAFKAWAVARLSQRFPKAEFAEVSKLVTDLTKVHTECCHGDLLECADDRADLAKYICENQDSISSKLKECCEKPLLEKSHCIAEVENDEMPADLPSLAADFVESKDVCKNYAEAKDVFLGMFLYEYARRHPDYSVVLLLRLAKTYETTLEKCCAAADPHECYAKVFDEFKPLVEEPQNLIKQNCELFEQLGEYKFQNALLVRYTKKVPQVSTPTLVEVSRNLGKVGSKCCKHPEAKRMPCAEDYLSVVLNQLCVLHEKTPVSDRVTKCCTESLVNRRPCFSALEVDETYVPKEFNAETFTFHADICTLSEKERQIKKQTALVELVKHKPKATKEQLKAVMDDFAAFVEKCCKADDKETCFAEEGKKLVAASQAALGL

How did the “degradation of purified HSA mixed with culture supernatant (30 C, 3 days), SDS-PAGE and Western blotting using an anti-HSA antibody” value turn out when “YscB protein of Talaromyces cellulolyticus strain S6-25” was run?
The value was “in the case of the strain deficient in yscB, the bands corresponding to degradation products were eliminated”.
